Measurements taken from PMC3977038.

Legend:
[1] = target: Fcε3-4 sub-fragment of IgE-Fc (human); experiment: ITC
[2] = target: aεFab^1–IgE-Fc complex (one aεFab bound to IgE-Fc) (UniProt P01854); experiment: SPR

B1: anti-ε-chain Fab (aεFab), anti-human IgE-Fc antibody in human IgG1 Fab format (Fab, V domains shown)
VH: QVQLQQSGPGLVKPSQTLSLTCGISGDSVSSNSAAWNWLRQSPSRGLEWLGRTYYRSKWYNDYAVSMKSRITINPDTSRNQFSLQLNSVTPEDTAVYYCARDGEISYDYYYYGMDVWGRGTLVTVSS
VL: QSVLTQPPSASGTPGQRVTISCSGSSSNIGNNGVNWYQQVPGKPPKLLIYYDDLLPSGVSDRFSGSKSGTSASLAISGLQSEDEADYYCEAWDDSLDGVVFGGGTKLTVL
- Kd2 (second site, sequential two-site fit) [1]: 0.98 µM
- Kd [2]: 1400 nM
